Source: patent US20240398929A1

Columns and labels:
[1] = target: GP[change] with 8D insertion after residue A309 (Ebola virus)
[2] = target: GP[change] with 12D insertion after residue A309 (Ebola virus)

With mAb114 (antibody) as the substance, how does the fold increase in binding against WT-GPΔmucin [1] read?
The fold increase in binding against WT-GPΔmucin was 2 fold.

What about the fold increase in binding against WT-GPΔmucin [2] of the same substance?
Its fold increase in binding against WT-GPΔmucin is 2 fold.
